B1: Azoarcus group I ribozyme (parent)
chain: GUGCCUUGCGCCGGGAAACCACGCAAGGGAUGGUGUCAAAUUCGGCGAAACCUAAGCGCCCGCCCGGGCGUAUGGCAACGCCGAGCCAAGCUUCGGCGCCUGCGCCGAUGAAGGUGUAGAGACUAGACGGCACCCACCUAAGGCAAACGCUAUGGUGAAGGCAUAGUCCAGGGAGUGGCGAAAGUCACACAAACCGG

Variants of: B1
Experiment: reverse-splicing fitness (ratio to wild type); higher = more active; in vitro selection; Mg2+ level not given
Summary of the method: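 An in vitro group I ribozyme library with randomized positions was T7-transcribed and gel-purified. In triplicate, 10 pmol RNA in EPPS pH 7.5 was reacted with 50 pmoles of a 30-nt RNA substrate for 1 h at 37 °C across several added MgCl2 levels (1–48 mM), then stopped with EDTA. Products were reverse transcribed from a substrate-complementary primer, PCR-amplified and sequenced (HiSeq 4000). Fitness is a variant's read proportion after selection over that before, normalised to wild type.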

| Variant | reverse-splicing fitness |
| --- | --- |
| C82A A111U A120U A145U C150G C169A U176G | 0.00285 |
| C82A A111U A120U A145U C150G C169A U176C | 0.00325 |
| C82A A111U A120U A145U C150G C169A U176A | 0.00398 |
| C82A A111U A145C C150A C169G U176A | 0.029 |
| C82A A111U A145C C150A C169G U176G | 0.00831 |
| C82A A111U A145C C150A C169G U176C | 0.0169 |
| C82A A111U A120U A145U C150A C169G | 0.00274 |
| C82A A111U A120U A145U C150A C169U | 0.00298 |
| C82A A111U A120U A145U C150A C169A | 0.00286 |
| C82A A111U A145C U176A | 0.0948 |
| C82A A111U A145C U176C | 0.126 |
| C82A A111U A145C U176G | 0.0253 |
| C82A A111U A120U A145G C150G C169A U176C | 0.0099 |
| C82A A111U A120U A145G C150G C169A U176A | 0.0119 |
| C82A A111U A120U A145G C150G C169A U176G | 0.00618 |
| C82A A111U A145C C150G C169G U176A | 0.00985 |
| C82A A111U A145C C150G C169G U176G | 0.00637 |
| C82A A111U A145C C150G C169G U176C | 0.00829 |
| C82A A111U A120U C150G C169A | 0.00872 |
| C82A A111U A120U C150G C169U | 0.00659 |
| C82A A111U A120U C150G C169G | 0.00683 |

| Variant | reverse-splicing fitness |
| --- | --- |
| C82A A111U A120U A145U C169A U176C | 0.00197 |
| C82A A111U A120U A145U C169A U176G | 0.00222 |
| C82A A111U A120U A145U C169A U176A | 0.00283 |
| C82A A111U A120U A145U C150U U176A | 0.00828 |
| C82A A111U A120U A145U C150U U176G | 0.00385 |
| C82A A111U A120U A145U C150U U176C | 0.00878 |
| C82A A111U A145C C150G | 0.0267 |
| C82A A111U A145C C150U | 0.0537 |
| C82A A111U A145C C150A | 0.0156 |
| C82A A111U A120U A145G U176G | 0.00319 |
| C82A A111U A120U A145G U176C | 0.0114 |
| C82A A111U A120U A145G U176A | 0.00766 |
| C82A A111U A145G C150A C169G U176C | 0.027 |
| C82A A111U A145G C150A C169G U176A | 0.0183 |
| C82A A111U A145G C150A C169G U176G | 0.00681 |
| C82A A111U A145G C150G C169U | 0.0101 |
| C82A A111U A145G C150G C169G | 0.00774 |
| C82A A111U A145G C150G C169A | 0.0097 |
| C82A A111U A120U A145U C150A U176C | 0.00625 |
| C82A A111U A120U A145U C150A U176A | 0.00486 |
| C82A A111U A120U A145U C150A U176G | 0.00236 |

| Variant | reverse-splicing fitness |
| --- | --- |
| C82A A111U A120U C150U C169A | 0.00594 |
| C82A A111U A120U C150U C169G | 0.00623 |
| C82A A111U A120U C150U C169U | 0.00507 |
| C82A A111U A145C C169G U176G | 0.00654 |
| C82A A111U A145C C169G U176A | 0.0281 |
| C82A A111U A145C C169G U176C | 0.0185 |
| C82A A111U A120U A145C U176G | 0.00274 |
| C82A A111U A120U A145C U176A | 0.00613 |
| C82A A111U A120U A145C U176C | 0.00758 |
| C82A A111U A145C C150U C169G U176G | 0.00743 |
| C82A A111U A145C C150U C169G U176A | 0.0233 |
| C82A A111U A145C C150U C169G U176C | 0.0141 |
| C82A A111U A145C C150U U176G | 0.0107 |
| C82A A111U A145C C150U U176C | 0.0396 |
| C82A A111U A145C C150U U176A | 0.0254 |
| C82A A111U A120U A145G C169A | 0.0037 |
| C82A A111U A120U A145G C169G | 0.00467 |
| C82A A111U A120U A145G C169U | 0.00488 |
| C82A A111U A145C C150A U176C | 0.0157 |
| C82A A111U A145C C150A U176G | 0.00842 |
| C82A A111U A145C C150A U176A | 0.0125 |

| Variant | reverse-splicing fitness |
| --- | --- |
| C82A A111U A145G C150A U176A | 0.0206 |
| C82A A111U A145G C150A U176G | 0.0112 |
| C82A A111U A145G C150A U176C | 0.0448 |
| C82A A111U A120U C150U C169G U176A | 0.00965 |
| C82A A111U A120U C150U C169G U176G | 0.00271 |
| C82A A111U A120U C150U C169G U176C | 0.00496 |
| C82A A111U A120U A145U C150A C169A U176A | 0.00303 |
| C82A A111U A120U A145U C150A C169A U176C | 0.00269 |
| C82A A111U A120U A145U C150A C169A U176G | 0.00212 |
| C82A A111U A145G C150A C169U U176A | 0.0158 |
| C82A A111U A145G C150A C169U U176C | 0.0161 |
| C82A A111U A145G C150A C169U U176G | 0.00831 |
| C82A A111U A145C C150A C169U U176G | 0.00705 |
| C82A A111U A145C C150A C169U U176A | 0.0155 |
| C82A A111U A145C C150A C169U U176C | 0.0116 |
| C82A A111U A120U A145C C150G C169G | 0.0039 |
| C82A A111U A120U A145C C150G C169U | 0.00392 |
| C82A A111U A120U A145C C150G C169A | 0.00347 |
| C82A A111U A120U A145C C150G C169A U176G | 0.00234 |
| C82A A111U A120U A145C C150G C169A U176A | 0.00316 |
| C82A A111U A120U A145C C150G C169A U176C | 0.00302 |

Source: the RNAGym collection of RNA variant scans (doi:10.1093/molbev/msab373)
